Assay results as given in patent US20210008207A1 (TECHNISCHE UNIVERSIT T M NCHEN, published 2021).

T1: recombinant human CEACAM1 N-domain (C1ND; residues 35-142) with C-terminal Strep-Tag II, made in Expi293 cells (human, UniProt P13688 35-142, N-glycosylated (three glycosylation forms beside the non-glycosylated protein))
T1 construct: range 35-142; also called N-terminal domain of human CEACAM1; huCEACAM1-ND; not shown: C-terminal Strep-Tag II
T1 sequence: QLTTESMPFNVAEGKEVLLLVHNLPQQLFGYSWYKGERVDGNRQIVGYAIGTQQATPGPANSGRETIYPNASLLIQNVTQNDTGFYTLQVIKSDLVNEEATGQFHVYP

T2: CEACAM8 (human (species not restated for this …, UniProt P31997))
T2 sequence: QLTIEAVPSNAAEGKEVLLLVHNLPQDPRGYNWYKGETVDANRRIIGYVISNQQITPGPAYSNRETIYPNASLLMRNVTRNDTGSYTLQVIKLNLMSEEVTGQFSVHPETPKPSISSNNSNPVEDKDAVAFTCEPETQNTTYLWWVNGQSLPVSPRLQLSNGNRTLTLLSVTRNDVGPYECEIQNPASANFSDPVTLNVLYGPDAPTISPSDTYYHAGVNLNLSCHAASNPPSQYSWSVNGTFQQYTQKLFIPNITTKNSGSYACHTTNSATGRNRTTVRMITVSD

T3: CEACAM5 (human (species not restated for this …, UniProt P06731))
T3 sequence: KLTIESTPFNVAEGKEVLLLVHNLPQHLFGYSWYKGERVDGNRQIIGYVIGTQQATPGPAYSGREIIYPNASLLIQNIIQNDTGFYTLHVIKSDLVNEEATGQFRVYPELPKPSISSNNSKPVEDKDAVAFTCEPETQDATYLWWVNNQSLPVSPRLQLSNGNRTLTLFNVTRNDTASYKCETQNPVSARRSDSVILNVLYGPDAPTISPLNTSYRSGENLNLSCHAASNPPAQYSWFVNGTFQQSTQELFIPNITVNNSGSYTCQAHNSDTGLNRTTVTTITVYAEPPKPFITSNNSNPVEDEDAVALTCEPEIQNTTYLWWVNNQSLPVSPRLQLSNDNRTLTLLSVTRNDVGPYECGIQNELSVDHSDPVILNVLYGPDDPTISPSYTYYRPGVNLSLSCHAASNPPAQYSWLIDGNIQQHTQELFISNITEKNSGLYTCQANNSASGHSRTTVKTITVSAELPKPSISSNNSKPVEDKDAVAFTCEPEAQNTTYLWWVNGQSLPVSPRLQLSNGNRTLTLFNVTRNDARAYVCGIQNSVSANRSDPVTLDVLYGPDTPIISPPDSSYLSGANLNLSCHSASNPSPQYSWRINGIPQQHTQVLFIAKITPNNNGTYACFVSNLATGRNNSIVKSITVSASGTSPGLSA

T4: E. coli expressed human CEACAM1 N-domain (Ec-C1ND) with C-terminal His6 tag, non-glycosylated (human, UniProt P13688 35-142)
T4 construct: range 35-142; also called non-glycosylated N-terminal domain of human CEACAM1; hC1ND
T4 sequence: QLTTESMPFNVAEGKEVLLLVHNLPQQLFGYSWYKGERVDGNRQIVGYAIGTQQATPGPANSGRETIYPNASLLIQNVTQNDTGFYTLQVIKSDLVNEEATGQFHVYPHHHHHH

B1: HopQ^ADΔID, HopQ^AD in which amino acids 190-218 of the mature protein (the HopQ insertion domain) are replaced by two glycines (other)
chain: AVQKVKNADKVQKLSDTYEQLSRLLTNDNGTNSKTSAQAINQAVNNLNERAKTLAGGTTNSPAYQATLLALRSVLGLWNSMGYAVICGGYTKSPGENNQKDFHYTDENGNGTTINCGGSTNSNGTHSYNGTNTLKADKNVSLSIEQYEKIHEAYQILSKALKQAGLAPLNSKGGGDAQNLLTQAQTIVNTLKDYCPILIAKSSSSNGGTNNANTPSWQTAGGGKNSCATFGAEFSAASDMINNAQKIVQETQQLSANQPKNITQPHNLNLNSPSSLTALAQKMLKNAQSQAEILKLANQVESDFNKLSSGHLKDYIGKCDASAISSANMTMQNQKNNWGNGCAGVEETQSLLKTSAADFNNQTPQINQAQNLANTLIQELGNNPFRNMGMIASSTTNNGAHHHHHH
notes: also called HopQ-ID deletion mutant; mutant HopQ^AD lacking the HopQ-ID
B2: HopQ adhesin domain (HopQ^AD), type I HopQ fragment of H. pylori strain G27, residues 37-463 (residu (other)
chain: AVQKVKNADKVQKLSDTYEQLSRLLTNDNGTNSKTSAQAINQAVNNLNERAKTLAGGTTNSPAYQATLLALRSVLGLWNSMGYAVICGGYTKSPGENNQKDFHYTDENGNGTTINCGGSTNSNGTHSYNGTNTLKADKNVSLSIEQYEKIHEAYQILSKALKQAGLAPLNSKGEKLEAHVTTSKYQQDNQTKTTTSVIDTTNDAQNLLTQAQTIVNTLKDYCPILIAKSSSSNGGTNNANTPSWQTAGGGKNSCATFGAEFSAASDMINNAQKIVQETQQLSANQPKNITQPHNLNLNSPSSLTALAQKMLKNAQSQAEILKLANQVESDFNKLSSGHLKDYIGKCDASAISSANMTMQNQKNNWGNGCAGVEETQSLLKTSAADFNNQTPQINQAQNLANTLIQELGNNPFRNMGMIASSTTNNGAHHHHHH
notes: also called HopQ^AD I

Experiments:
[1] = biological target: T1, recombinant human CEACAM1 N-domain …; test: ELISA, C1ND coated, His-tag detected
[2] = biological target: T2, CEACAM8; test: ELISA, panel CEACAM8; protein titrated [cont.) f]
[3] = biological target: T3, CEACAM5; test: ELISA, panel CEACAM5; HopQ fragment titrated [cont.) f]
[4] = biological target: T1, recombinant human CEACAM1 N-domain …; test: ITC; 25 µM C1ND in the cell titrated with 250 µM HopQ^AD, 25 °C
[5] = biological target: T1, recombinant human CEACAM1 N-domain …; test: ELISA; C1ND coated, HopQ fragment titrated, α-6×His-HRP detection
[6] = biological target: T4, E. coli expressed human CEACAM1 …; test: ITC; 25 µM Ec-C1ND in the cell titrated with 250 µM HopQ^AD, 25 °C
[7] = biological target: T1, recombinant human CEACAM1 N-domain …; test: isothermal titration calorimetry, 25 °C; ITC in solution, folded glycosylated C1ND (FIG. 8a)
[8] = biological target: T1, recombinant human CEACAM1 N-domain …; test: isothermal titration calorimetry, 25 °C; ITC in solution, folded glycosylated C1ND; stoichiometry, not affinity

Binder	fold reduction of binding affinity against HopQ^AD [1] [fold]	binding result [2]	EC50 (read off the curve) [3] [µg/well]	ΔH [4] [kcal/mol]	ΔS [4] [cal/mol/deg]	EC50 (read off the curve) [5] [µg/well]	Kd [6] [nM]	ΔH [6] [kcal/mol]	ΔS [6] [cal/mol/deg]	Kd [7] [nM]	stoichiometry [8] [HopQ^AD per C1ND]
B1	~10	no binding (tested: 10 µg/well)	~0.08								
B2		no binding (tested: 10 µg/well)	~0.04	-13	-13.7	~0.2	417	-16.7	-26.8	296	1
